Test [1] has as its target human serum albumin (human) (UniProt P02768). The experiment in a line: sandwich ELISA, HSA coated at 10 µg/ml, control at 1 µM, detection with anti-FITC antibody.
The target of test [2] is interleukin-1 type 1 receptor (human) (UniProt P14778). The experiment in a line: cell-based or functional assay.
The target in test [3] is human serum albumin (human) (UniProt P02768).

Where two headings read alike, the source gives them in different places.

interleukin-1 type 1 receptor (human), sequence (P14778 18-569): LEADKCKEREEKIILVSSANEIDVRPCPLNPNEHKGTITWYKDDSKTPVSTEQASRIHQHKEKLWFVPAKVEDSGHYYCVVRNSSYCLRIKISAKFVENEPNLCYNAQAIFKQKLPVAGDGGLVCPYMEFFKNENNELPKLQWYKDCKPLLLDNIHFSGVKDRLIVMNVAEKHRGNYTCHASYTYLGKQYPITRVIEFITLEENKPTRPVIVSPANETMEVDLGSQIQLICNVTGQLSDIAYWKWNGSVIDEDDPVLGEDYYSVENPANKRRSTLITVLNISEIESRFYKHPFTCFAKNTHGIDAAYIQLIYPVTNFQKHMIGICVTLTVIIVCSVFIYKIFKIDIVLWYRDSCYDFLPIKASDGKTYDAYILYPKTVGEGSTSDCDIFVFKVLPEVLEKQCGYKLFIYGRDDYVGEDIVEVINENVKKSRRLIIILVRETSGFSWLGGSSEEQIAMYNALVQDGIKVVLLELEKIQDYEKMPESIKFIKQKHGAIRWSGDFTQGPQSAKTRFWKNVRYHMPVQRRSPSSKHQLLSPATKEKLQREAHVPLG
uncoupled saporin (enzyme), sequence (P20656 25-277): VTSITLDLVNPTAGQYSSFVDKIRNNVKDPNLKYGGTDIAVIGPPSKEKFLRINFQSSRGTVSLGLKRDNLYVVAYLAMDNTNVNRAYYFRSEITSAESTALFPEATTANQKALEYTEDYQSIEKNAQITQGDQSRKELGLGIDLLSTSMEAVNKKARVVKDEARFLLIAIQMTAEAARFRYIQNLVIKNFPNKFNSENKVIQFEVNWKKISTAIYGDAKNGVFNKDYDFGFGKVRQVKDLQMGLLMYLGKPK
recombinant human IL-1ra (R&D systems), sequence (P18510 other isoform, or with tags, fused parts or gaps): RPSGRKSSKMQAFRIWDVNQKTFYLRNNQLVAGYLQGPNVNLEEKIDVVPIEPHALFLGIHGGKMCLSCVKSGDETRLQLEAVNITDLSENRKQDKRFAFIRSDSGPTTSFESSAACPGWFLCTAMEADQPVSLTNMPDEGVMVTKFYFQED

In turn, control FITC coupled antibody yielded an OD600 in test [1] of 0.049 OD600.
Take “recombinant human IL-1ra (R&D systems) (from UniProt P18510 26-176) (ligand)”: the ND50 (neutralizing dose 50), IL-1-induced IL-8 secretion by MRC-5 cells in test [2] is 0.5 nM.
In the case of uncoupled saporin (enzyme), the OD600 in test [3] amounted to 0.079 OD600.

(Values after US20090111745A1.)
